# Changes are numbered by the printed parent chain. Names may count otherwise.
# T1: mouse AGR2 (21-175) C81S (mouse, UniProt O88312 21-175, C81S)
# T1 sequence: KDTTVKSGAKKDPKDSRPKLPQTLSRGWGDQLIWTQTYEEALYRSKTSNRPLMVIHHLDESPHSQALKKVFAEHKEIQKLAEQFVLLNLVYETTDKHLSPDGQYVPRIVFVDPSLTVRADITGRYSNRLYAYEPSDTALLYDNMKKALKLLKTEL
# T2: mouse AGR2 (21-175) C81E (mouse, UniProt O88312 21-175, C81E)
# T2 sequence: T1 sequence with S61E
# T3: MBP-hIRE1bLD (35-428)-NanoLuc-H6 (human, UniProt Q76MJ5 35-428)
# T3 construct: IRE1β (ERN2) luminal domain, human, residues 35-428; No step that cleaves MBP is described; also called IRE1β-nluc donor; IRE1β LD-nanoluc; source: T7 Express lysY/Iq E. coli, purified (Ni-NTA, amylose resin, two gel filtrations); not shown: NanoLuc (complete, WT), C-terminal, kept
# T3 sequence (looked up): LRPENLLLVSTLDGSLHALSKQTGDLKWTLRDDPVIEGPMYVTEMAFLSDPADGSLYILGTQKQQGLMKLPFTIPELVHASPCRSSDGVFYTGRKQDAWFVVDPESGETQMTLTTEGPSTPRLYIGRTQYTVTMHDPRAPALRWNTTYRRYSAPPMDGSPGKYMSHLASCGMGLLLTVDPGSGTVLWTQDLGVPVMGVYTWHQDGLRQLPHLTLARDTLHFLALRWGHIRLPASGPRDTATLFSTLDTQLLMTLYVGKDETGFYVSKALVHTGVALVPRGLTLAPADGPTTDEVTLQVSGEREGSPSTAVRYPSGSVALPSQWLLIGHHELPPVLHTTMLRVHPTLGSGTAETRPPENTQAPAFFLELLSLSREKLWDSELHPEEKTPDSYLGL
# B1: mouse AGR2 (21-175) C81E (natural protein, UniProt O88312 21-175, looked up)
# chain: T1 sequence with S61E
# notes: AGR2, mouse, residues 21-175, active site mutant C81E; also called AGR2 C81E; UK2835; source: T7 Express lysY/Iq E. coli, purified (Ni-NTA, SENP2 cleavage, reverse Ni-NTA); not shown: His6, N-terminal, cleaved; SUMO3, N-terminal, cleaved
# B2: mouse AGR2 (21-175) C81S (natural protein, UniProt O88312 21-175, looked up)
# chain: T1 sequence
# notes: AGR2, mouse, residues 21-175, active site mutant C81S; also called AGR2 C81S; UK2795; source: T7 Express lysY/Iq E. coli, purified (Ni-NTA, SENP2 cleavage, reverse Ni-NTA); not shown: His6, N-terminal, cleaved; SUMO3, N-terminal, cleaved
# B3: MBP-hIRE1b_LD_(35-428)-AviTag-His7 (domain or fragment, human, UniProt Q76MJ5 35-428, looked up)
# chain: T3 sequence (looked up)
# modifications: biotin on the AviTag (endogenous biotinylation of a fraction of the protein in E. coli)
# notes: IRE1β (ERN2) luminal domain, human, residues 35-428; No step that cleaves MBP is described; also called IRE1β LD; IRE1β LD probe; source: T7 Express lysY/Iq E. coli, purified (Ni-NTA, amylose resin, two gel filtrations); not shown: AviTag, C-terminal, kept
# B4: MBP-hIRE1β LD-mGL-AviTag-His (domain or fragment, human, UniProt Q76MJ5 35-428, looked up)
# chain: T3 sequence (looked up)
# notes: IRE1β (ERN2) luminal domain, human; C-terminal mGL inserted in the MBP-hIRE1bLD of UK2796 (residues 35-428); also called GFP-tagged IRE1β LD; IRE1β LD-mGL acceptor; source: T7 Express lysY/Iq E. coli, purified (Ni-NTA, amylose resin, two gel filtrations); not shown: MBP, N-terminal, kept; mGL (monomeric Green Lantern), C-terminal, kept
# Experiments:
# [1] = target: MBP-hIRE1β LD ∆C-mGL-AviTag-His (human) (UniProt Q76MJ5); test: mass photometry (ISCAT); IRE1β LD wt or ∆C alone at the indicated concentrations; HK buffer, room temperature (~21 °C)
# [2] = target: AGR2 (Homo sapiens) (UniProt O95994); details: cited from earlier work
# [3] = target: B3; test: BLI; biotinylated IRE1 LD loaded on streptavidin sensors, exposed sequentially to increasing concentrations of AGR2; 30 °C; HK buffer (50 mM HEPES-KOH pH 7.4, 150 mM KCl) with 0.05% Triton X-100 and 1 mM TCEP; signal against AGR2 concentration fitted to a one-site specific binding function (the methods call the result a KD of binding); details: both partners purified
# [4] = target: T1, mouse AGR2 (21-175) C81S; test: BLI; K1/2 max from steady-state one-site fit
# [5] = target: T2, mouse AGR2 (21-175) C81E; test: BLI; K1/2 max from steady-state one-site fit
# [6] = target: T3, MBP-hIRE1bLD (35-428)-NanoLuc-H6; test: FRET or BRET; kinetic readings: AGR2 variants or unlabelled IRE1β LD competitor added to the pre-formed IRE1β LD-nanoluc / IRE1β LD-mGL BRET pair; BRET ratio every 20 s, one-phase exponential decay; details: both partners purified
# [7] = target: the molecule itself; test: mass photometry (ISCAT); IRE1β LD wt or ∆C alone at the indicated concentrations; HK buffer, room temperature (~21 °C)
molecule,measurement,setting,value
MBP-hIRE1β LD ∆C-mGL-AviTag-His (from UniProt Q76MJ5 35-428) (domain or fragment),stoichiometry N,[1],2
AGR2 (from UniProt O95994),Kd,[2],8 µM
B1,binding result,[3],binds
B2,binding result,[3],binds
B3,Kd,[4],124 µM
same,Kd,[5],78.5 µM
same,binding result,[6],binds
B4,stoichiometry N,[7],2

# From PMC10907699, “The IRE1β-mediated unfolded protein response is repressed by the chaperone AGR2 in mucin producing cells” (The EMBO Journal, 2023)
